Source: patent US20220289825A1 (NANJING SHUNXIN PHARMACEUTICALS CO LTD OF CHIATAI TIANQING …, published 2022)
“And” between values parts separate entries of the source, which are not always exact repeats. Equal entries are not always repeated.

Biological target: PD-L1 on CHO-PDL1-CD3L cells (UniProt Q9NZQ7 19-290, limits assumed)
Experiment: cell-based or functional assay

PD-L1 on CHO-PDL1-CD3L cells, sequence (Q9NZQ7 19-290 limits assumed): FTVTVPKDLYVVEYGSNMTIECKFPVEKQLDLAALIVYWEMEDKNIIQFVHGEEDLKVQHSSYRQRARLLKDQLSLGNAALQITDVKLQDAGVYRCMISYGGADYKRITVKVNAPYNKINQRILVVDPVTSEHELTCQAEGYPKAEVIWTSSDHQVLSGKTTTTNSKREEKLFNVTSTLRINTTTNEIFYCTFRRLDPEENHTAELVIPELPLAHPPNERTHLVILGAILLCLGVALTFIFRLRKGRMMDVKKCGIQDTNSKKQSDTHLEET

Biological activity (EC50 of reference sample/EC50 of test sample x 100%): 100%
EC50 (nmol/L), reporter gene assay (CHO-PDL1-CD3L + Jurkat-PD-1-NFAT, luciferase RLU): 4.6 nmol/L and 4.15 nmol/L
B1: PD-L1 antibody (humanized 5G11-IgG1 antibody of CN107001463) (antibody, V domains shown)
VH: QITLKESGPTLVKPTQTLTLTCTVSGFSLSTYGVHWIRQPPGKALEWLGVIWRGVTTDYNAAFMSRLTITKDNSKNQVVLTMNNMDPVDTATYYCARLGFYAMDYWGQGTLVTVSS
VL: DIQMTQSPSSLSASVGDRVTITCKASQSVSNDVAWYQQKPGKAPKLLIYYAANRYTGVPDRFSGSGYGTDFTFTISSLQPEDIATYFCQQDYTSPYTFGQGTKLEIKR
